Data on one protein can be found in article PMC9805127.

Substrate in the series: O=C(O)C(=O)O
Kind of series: purified protein. To be noted: pH 4.0 (authors' preferred pH; also measured at pH 3 and 5), 100 mM buffer, air-saturated, 25 °C, 0.025 μM HvOXO, 0.125 μM PaDa-I as coupling enzyme.

B1: HvOXO (Hordeum vulgare) (protein)
chain: SDPDPLQDFCVADLDGKAVSVNGHTCKPMSEAGDDFLFSSKLTKAGNTSTPNGSAVTELDVAEWPGTNTLGVSMNRVDFAPGGTNPPHIHPRATEIGMVMKGELLVGILGSLDSGNKLYSRVVRAGETFVIPRGLMHFQFNVGKTEAYMVVSFNSQNPGIVFVPLTLFGSDPPIPTPVLTKALRVEAGVVELLKSKFAGGS
As to B1, the Km was 730 ± 90 µM, the turnover number (kcat) was 1.52 s⁻¹ and the kcat/Km was 2080 M⁻¹ s⁻¹.

The Km is the substrate concentration at which the rate is half of its maximum. Usually kcat stands for the maximal rate divided by the concentration of active sites. In general, kcat/Km refers to the turnover number divided by the Michaelis constant.
